From PMC9482650, “Quantitative fragmentomics allow affinity mapping of interactomes” (Nature Communications, 2022)

T1: RADIL, Q96JH8
T1 sequence (Q96JH8 971-1071, limits assumed, looked up): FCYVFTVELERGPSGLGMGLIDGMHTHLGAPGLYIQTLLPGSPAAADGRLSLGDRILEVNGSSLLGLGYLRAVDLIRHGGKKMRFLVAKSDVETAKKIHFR

T2: DLG3_3, Q92796
T2 sequence (Q92796 374-475, limits assumed, looked up): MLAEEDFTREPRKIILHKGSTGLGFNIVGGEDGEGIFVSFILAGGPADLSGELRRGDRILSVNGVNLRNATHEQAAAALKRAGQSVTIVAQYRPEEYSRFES

T3: MPP2, Q14168
T3 sequence (Q14168 180-250, limits assumed, looked up): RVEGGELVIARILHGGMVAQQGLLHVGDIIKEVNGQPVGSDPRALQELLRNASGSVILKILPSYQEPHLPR

T4: LNX2_2, Q8N448
T4 sequence (Q8N448 334-432, limits assumed, looked up): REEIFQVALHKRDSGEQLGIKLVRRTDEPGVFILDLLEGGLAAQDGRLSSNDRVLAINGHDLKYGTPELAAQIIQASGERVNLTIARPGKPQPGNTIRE

T5: NHERF3_1, Q5T2W1
T5 sequence (Q5T2W1 4-100, limits assumed, looked up): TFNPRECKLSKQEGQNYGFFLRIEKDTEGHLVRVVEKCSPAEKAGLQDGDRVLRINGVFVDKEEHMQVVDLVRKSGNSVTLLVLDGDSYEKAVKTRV

T6: LNX2_3, Q8N448
T6 sequence (Q8N448 463-564, limits assumed, looked up): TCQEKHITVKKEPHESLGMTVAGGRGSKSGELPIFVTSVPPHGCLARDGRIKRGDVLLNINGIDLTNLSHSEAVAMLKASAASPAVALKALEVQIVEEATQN

T7: LIN7B, Q9HAP6
T7 sequence (Q9HAP6 88-185, limits assumed, looked up): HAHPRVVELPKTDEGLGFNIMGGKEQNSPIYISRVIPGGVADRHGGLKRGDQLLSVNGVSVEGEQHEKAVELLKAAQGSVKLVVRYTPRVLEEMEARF

T8: GRIP1_5, Q9Y3R0
T8 sequence (Q9Y3R0 568-668, limits assumed, looked up): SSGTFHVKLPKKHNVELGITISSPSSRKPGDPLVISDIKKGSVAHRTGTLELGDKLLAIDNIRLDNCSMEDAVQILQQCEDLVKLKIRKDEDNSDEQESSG

T9: GRIP1_4, Q9Y3R0
T9 sequence (Q9Y3R0 467-571, limits assumed, looked up): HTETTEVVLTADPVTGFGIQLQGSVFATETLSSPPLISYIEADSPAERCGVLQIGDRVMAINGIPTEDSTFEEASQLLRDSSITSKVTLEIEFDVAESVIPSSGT

T10: DVL3, Q92997
T10 sequence (Q92997 244-331, limits assumed, looked up): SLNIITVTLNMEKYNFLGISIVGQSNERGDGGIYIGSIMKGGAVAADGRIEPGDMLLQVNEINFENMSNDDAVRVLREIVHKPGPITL

T11: ARHGEF11, O15085
T11 sequence (O15085 42-136, limits assumed, looked up): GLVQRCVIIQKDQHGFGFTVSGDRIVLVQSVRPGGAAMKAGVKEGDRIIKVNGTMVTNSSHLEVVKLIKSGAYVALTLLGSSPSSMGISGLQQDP

T12: TIAM2, Q8IVF5
T12 sequence (Q8IVF5 885-986, limits assumed, looked up): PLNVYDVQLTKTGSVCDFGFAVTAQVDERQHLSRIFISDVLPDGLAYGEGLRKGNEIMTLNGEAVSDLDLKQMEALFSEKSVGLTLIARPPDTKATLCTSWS


Tests used:
Assay in all cases: holdup assay
Design in all cases: key: below the threshold = too weak to quantify, mostly under pKd 3.1 to 4
Conditions in all cases: plain residues with an end cap or a label only (N-terminal biotin on a linker: ado-ado)
FRMPD4, Q14CM0 = target: FRMPD4, Q14CM0
Sequence of FRMPD4, Q14CM0 (Q14CM0 67-160): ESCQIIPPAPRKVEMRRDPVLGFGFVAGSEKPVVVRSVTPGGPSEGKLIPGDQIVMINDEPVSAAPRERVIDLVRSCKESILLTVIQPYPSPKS

RADIL, Q96JH8 = target: T1, RADIL, Q96JH8
IL16_4, Q14005 = target: IL16_4, Q14005
Sequence of IL16_4, Q14005 (Q14005 1229-1329): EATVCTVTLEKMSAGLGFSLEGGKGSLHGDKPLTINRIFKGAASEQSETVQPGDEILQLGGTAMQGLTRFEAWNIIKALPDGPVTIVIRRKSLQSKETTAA

DLG3_3, Q92796 = target: T2, DLG3_3, Q92796
GIPC2, Q8TF65 = target: GIPC2, Q8TF65
Sequence of GIPC2, Q8TF65 (Q8TF65 112-203): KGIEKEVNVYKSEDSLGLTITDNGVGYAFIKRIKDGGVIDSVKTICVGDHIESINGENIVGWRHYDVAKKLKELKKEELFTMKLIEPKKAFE

DLG1_2, Q12959 = target: DLG1_2, Q12959
Sequence of DLG1_2, Q12959 (Q12959 314-412): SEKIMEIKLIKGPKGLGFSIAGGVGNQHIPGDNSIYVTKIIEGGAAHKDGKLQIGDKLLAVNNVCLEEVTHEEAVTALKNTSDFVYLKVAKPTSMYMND

MPP2, Q14168 = target: T3, MPP2, Q14168
PARD3_3, Q8TEW0 = target: PARD3_3, Q8TEW0
Sequence of PARD3_3, Q8TEW0 (Q8TEW0 582-685): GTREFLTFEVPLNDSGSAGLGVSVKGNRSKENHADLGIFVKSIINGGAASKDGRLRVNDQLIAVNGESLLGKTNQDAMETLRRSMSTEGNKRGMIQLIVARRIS

IL16_3, Q14005 = target: IL16_3, Q14005
Sequence of IL16_3, Q14005 (Q14005 1107-1207): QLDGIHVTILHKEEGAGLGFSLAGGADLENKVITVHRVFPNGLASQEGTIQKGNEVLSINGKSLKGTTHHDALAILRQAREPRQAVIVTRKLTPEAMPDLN

NOS1, P29475 = target: NOS1, P29475
Sequence of NOS1, P29475 (P29475 9-101): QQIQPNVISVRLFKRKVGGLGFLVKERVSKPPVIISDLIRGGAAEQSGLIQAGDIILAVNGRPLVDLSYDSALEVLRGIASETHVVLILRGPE

MAST2, Q6P0Q8 = target: MAST2, Q6P0Q8
Sequence of MAST2, Q6P0Q8 (Q6P0Q8 1099-1202): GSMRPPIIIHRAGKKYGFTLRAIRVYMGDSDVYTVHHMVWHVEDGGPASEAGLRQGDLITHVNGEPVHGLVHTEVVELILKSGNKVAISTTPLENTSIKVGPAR

LNX2_2, Q8N448 = target: T4, LNX2_2, Q8N448
NHERF3_1, Q5T2W1 = target: T5, NHERF3_1, Q5T2W1
SNX27, Q96L92 = target: SNX27, Q96L92
LNX2_3, Q8N448 = target: T6, LNX2_3, Q8N448
LAP2, Q96RT1 = target: LAP2, Q96RT1
Sequence of LAP2, Q96RT1 (Q96RT1 other isoform, or with tags, fused parts or gaps): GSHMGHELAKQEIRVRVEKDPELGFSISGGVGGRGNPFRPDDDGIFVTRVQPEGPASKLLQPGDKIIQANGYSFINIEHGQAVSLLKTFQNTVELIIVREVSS

LIN7B, Q9HAP6 = target: T7, LIN7B, Q9HAP6
GRIP1_5, Q9Y3R0 = target: T8, GRIP1_5, Q9Y3R0
MAGI2_2, Q86UL8 = target: MAGI2_2, Q86UL8
Sequence of MAGI2_2, Q86UL8 (Q86UL8 410-522): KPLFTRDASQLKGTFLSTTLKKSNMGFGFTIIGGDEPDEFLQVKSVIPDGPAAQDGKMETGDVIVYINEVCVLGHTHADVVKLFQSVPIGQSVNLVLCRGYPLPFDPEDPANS

GRIP1_4, Q9Y3R0 = target: T9, GRIP1_4, Q9Y3R0
TJP2_1, Q9UDY2 = target: TJP2_1, Q9UDY2
Sequence of TJP2_1, Q9UDY2 (Q9UDY2 24-128): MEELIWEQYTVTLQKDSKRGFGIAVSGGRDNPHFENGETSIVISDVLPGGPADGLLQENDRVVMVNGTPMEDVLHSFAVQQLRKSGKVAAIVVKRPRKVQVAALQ

DVL3, Q92997 = target: T10, DVL3, Q92997
GRIP2_5, Q9C0E4 = target: GRIP2_5, Q9C0E4
Sequence of GRIP2_5, Q9C0E4 (Q9C0E4 544-642): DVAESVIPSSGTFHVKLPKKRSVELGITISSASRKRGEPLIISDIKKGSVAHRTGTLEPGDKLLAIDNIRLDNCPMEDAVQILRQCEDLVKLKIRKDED

ARHGEF11, O15085 = target: T11, ARHGEF11, O15085
TIAM2, Q8IVF5 = target: T12, TIAM2, Q8IVF5
Inadl_2, Q8NI35 = target: Inadl_2, Q8NI35
Sequence of Inadl_2, Q8NI35 (Q8NI35 238-335): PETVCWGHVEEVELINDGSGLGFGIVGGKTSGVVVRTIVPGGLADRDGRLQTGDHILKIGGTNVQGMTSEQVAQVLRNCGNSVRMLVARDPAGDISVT

| Binder | pKd (FRMPD4, Q14CM0) | pKd (RADIL, Q96JH8) | pKd (IL16_4, Q14005) | pKd (DLG3_3, Q92796) | pKd (GIPC2, Q8TF65) | pKd (DLG1_2, Q12959) | pKd (MPP2, Q14168) | pKd (PARD3_3, Q8TEW0) | pKd (IL16_3, Q14005) | pKd (NOS1, P29475) | pKd (MAST2, Q6P0Q8) | pKd (LNX2_2, Q8N448) | pKd (NHERF3_1, Q5T2W1) | pKd (SNX27, Q96L92) | pKd (LNX2_3, Q8N448) | pKd (LAP2, Q96RT1) | pKd (LIN7B, Q9HAP6) | pKd (GRIP1_5, Q9Y3R0) | pKd (MAGI2_2, Q86UL8) | pKd (GRIP1_4, Q9Y3R0) | also measured |
| --- | --- | --- | --- | --- | --- | --- | --- | --- | --- | --- | --- | --- | --- | --- | --- | --- | --- | --- | --- | --- | --- |
| SAGADSETHC [SLCO1B1, Q9Y6L6] | below the threshold | below the threshold | below the threshold | below the threshold | 3.71 | below the threshold | below the threshold | below the threshold | below the threshold | below the threshold | 4.62 | below the threshold | 3.68 | 4.65 | below the threshold | below the threshold | 3.69 | below the threshold | below the threshold | below the threshold | pKd (TJP2_1, Q9UDY2): below the threshold; pKd (DVL3, Q92997): below the threshold; pKd (GRIP2_5, Q9C0E4): below the threshold; pKd (ARHGEF11, O15085): below the threshold; pKd (TIAM2, Q8IVF5): below the threshold; pKd (Inadl_2, Q8NI35): below the threshold |
| GVHSNDHSVV [LPAR1, Q92633] | below the threshold | 3.62 | 3.76 | below the threshold | below the threshold | 3.99 | below the threshold | below the threshold | below the threshold | below the threshold | 4.12 | 4.26 | below the threshold | below the threshold | below the threshold | below the threshold | 3.64 | below the threshold | 3.69 | below the threshold | pKd (TJP2_1, Q9UDY2): below the threshold; pKd (DVL3, Q92997): below the threshold; pKd (GRIP2_5, Q9C0E4): below the threshold; pKd (ARHGEF11, O15085): 3.58; pKd (TIAM2, Q8IVF5): 3.94; pKd (Inadl_2, Q8NI35): below the threshold |
| FLVTEFNVML [DFNB31, Q9P202] | 4.9 | 4.78 | below the threshold | below the threshold | below the threshold | below the threshold | below the threshold | 4.49 | below the threshold | below the threshold | 5.15 | below the threshold | 4.88 | 4.4 | below the threshold | below the threshold | below the threshold | below the threshold | below the threshold | below the threshold | pKd (TJP2_1, Q9UDY2): below the threshold; pKd (DVL3, Q92997): 3.66; pKd (GRIP2_5, Q9C0E4): below the threshold; pKd (ARHGEF11, O15085): 3.95; pKd (TIAM2, Q8IVF5): 3.59; pKd (Inadl_2, Q8NI35): below the threshold |
| WAKEKQHTRL [SLC17A1, Q14916] | 3.97 | below the threshold | below the threshold | below the threshold | below the threshold | 4.27 | below the threshold | below the threshold | below the threshold | 3.71 | 5.45 | below the threshold | 4.73 | 4.28 | below the threshold | below the threshold | below the threshold | below the threshold | 4.71 | below the threshold | pKd (TJP2_1, Q9UDY2): 3.82; pKd (DVL3, Q92997): below the threshold; pKd (GRIP2_5, Q9C0E4): below the threshold; pKd (ARHGEF11, O15085): 4.25; pKd (TIAM2, Q8IVF5): below the threshold; pKd (Inadl_2, Q8NI35): below the threshold |
| PALKNGQYWV [CSPG4, Q6UVK1] | 3.68 | 5.17 | below the threshold | below the threshold | below the threshold | below the threshold | below the threshold | 3.96 | below the threshold | 4.09 | 4.07 | 5.28 | below the threshold | 3.77 | below the threshold | 3.75 | below the threshold | below the threshold | below the threshold | below the threshold | pKd (TJP2_1, Q9UDY2): 4.6; pKd (DVL3, Q92997): 4.2; pKd (GRIP2_5, Q9C0E4): below the threshold; pKd (ARHGEF11, O15085): 3.8; pKd (TIAM2, Q8IVF5): 4.83; pKd (Inadl_2, Q8NI35): 4.38 |
| YAEKRMLTEV [KCNA6, P17658] | below the threshold | 3.97 | below the threshold | below the threshold | below the threshold | 4.23 | below the threshold | below the threshold | below the threshold | below the threshold | 5.6 | 4.04 | below the threshold | below the threshold | below the threshold | below the threshold | 3.65 | below the threshold | 4.33 | below the threshold | pKd (TJP2_1, Q9UDY2): below the threshold; pKd (DVL3, Q92997): below the threshold; pKd (GRIP2_5, Q9C0E4): below the threshold; pKd (ARHGEF11, O15085): 5.03; pKd (TIAM2, Q8IVF5): 3.99; pKd (Inadl_2, Q8NI35): below the threshold |
